The record followed here is a protein production outcome set (Wang et al. 2014).

The data set is described as follows: label from the status in PepcDB records.
With “MPGFLTADLIRARLAPKDFQRGEEYLKDGRVLKAEWVADDEISGQVAGSAGRRYVQTITLENGLGGLSIVGYCSCPVGFACKHVAAVLLTLAREAEPVVPAWDGSFGARPAQAAVSEPTLDPALAEWIAAVAGFEEVGDPEAYPPAIRHRLIYVVGPQGEGGVPQNGEGRSESRGGGRVSAEIEVTLWSIAVLKDGQMSSVERRILSADALVRSPARPAYLRPSDLALVPRLAALRAPGGGNALLLPQISGSELFAAMVASGRCRWGGPDGPTLYPGAARRAKLVWRSDGEGWQRPAIEPEAMAPEAADPETAQPDIGQPYIAQPAIPEIGALDGEAVEAPTRTDPDDASPAPEDGESGQSPEAEAWDLRALPIEPPAYVDPRSGETGPLDLGLDPRLAARLLSAPPIPPTSVDAVRSRLGALLPAAVPVLPAPIDAQPLSVAPQPILRLLALRAVPRMRGAEMPGETTQALVARPCFAYDSVILPADSSEPAPLRMVGASLMRIERDFAAEGTALRQLDRIGPLRVAEALGRVRVEGGISADRLIAPPFLPRGEERERAVDFLRDGVPDLEEAGWRIEIDPDFPVRPVVADSQDWWGGLNAVGGLEGTVGGWLSVGLGVTIDGERVDLLPALLTLLGEGEDLVEREEDELLYLPLGDGRVLPVAVRRLRPIFHALHAVAVPDERAGPGVRLSGRDLGPLALLEEAGKPLGVVWEGAEGARDIARRLAVVGLREAVAPPKGLVGSLRAYQNEGLDWLQFLRANNLGGILADDMGLGKTLQTLAHILVEKESGRLNDPVLIVAPTSVLGAWRREAAQFAPGLRLVVLHGPERAAGFSQMADQDVVVTSYALVRHDLEVLKAQPWHMLVLDEAQTIRNPQTVQYKAVAALKARHRLFLTGTPLENHLGDLWALMDLLMPGLLGDGATFRRVFRGPIEKRGDGPRRRALAVRVRPFILRRTKDEVATDLPAKTEMIDMVELEGGQRDLYEAVRLAAHKAIREVLAEKGLARGRIHILAALTRLRQVCCDPRLVKGGPRKPPPSAKLDRLEEMLRDLVDEGRRTLVFSAFPSMLALVEERLAAASIPWVSLTGETRDRDTPVTRFQSGAVPVFLISLKAGGTGLTLTAADTVIHYDPWWNPAVEAQATDRAHRIGQDKPVFVHKLVAAGTVEERILALQDRKRGLLDGLFDGEAGPSSLLSEEVIEEILRPLG”, the protein production result is on record as “failed”.

With “MPGIDKLPIEETLEDSPQTRSLLGVFEEDATAISNYMNQLYQAMHRIYDAQNELSAATHLTSKLLKEYEKQRFPLGGDDEVMSSTLQQFSKVIDELSSCHAVLSTQLADAMMFPITQFKERDLKEILTLKEVFQIASNDHDAAINRYSRLSKKRENDKVKYEVTEDVYTSRKKQHQTMMHYFCALNTLQYKKKIALLEPLLGYMQAQISFFKMGSENLNEQLEEFLANIGTSVQNV”, the protein production result is recorded as “failed”.

As for “MPHFHFSWREKFSVFRMAAEPPEKLVGALVGGLRVLRYLSAAPAGVGVTRVARDLQLNSSTCYNFLKTLVYEGLVTFDESTKTYSIALGLVELAKGVLEQGAYVRLIHPHLEEIARAHRVTATLWQRTSNERVVLVDRADNDSSVRVHMSVGQRLPMYIAALGRCMAANAGLDRDQLEQRFNALRWDDKPPFDEYLAGVQEARKNGYATDAGHYVKGVSTASAAVLDAFGKPVMAISAVGFSAQFTGDALEQLGEDLHERAGRITRALSGGRAGADS”, the protein production entry was “failed”.

With “MPIKKPCLKLNLDSLNVVRSEIPQMLSANERLKNNFNILYNQIRQYPAYYFKVASNVPTYSDICQSFSVMYQGFQIVNHSGDVFIHACRENPQSKGDFVGDKFHISIAREQVPLAFQILSGLLFSEDSPIDKWKITDMNRVSQQSRVGIGAQFTLYVKSDQECSQYSALLLHKIRQFIMCLESNLLRSKIAPGEYPASDVRPEDWKYVSYRNELRSDRDGSERQEQMLREEPFYRLMIE”, the protein production result is given as “failed”.

“MPISAHYGLTVLIWGLTWTAIRLQVESASVDLAVFYRFVMASVVALAVLAVTRRLSRLTLGQHGWLFLQGLTLYSVNFLLIYRAAESMTSGLLAVVFSLAALFNAFNGWLWLRTRPTARLYPAVALGVTGVALLFWHDLQLGNATGASILFAVAGTFWFSMGNLVSVKVKAAGVPLFTANAWAMVYGALILGLWCLIQGVEWMLPATSVFWGATVFLAVPGSIVAFYCYITVIQVLGADKAGYAAVLFPVVALSVSTWLEGFEWTTPAMLGALLAILGNYVLFRPGKRQSVSATSVPEQRT”: the protein production result was “failed”.

For the sequence “MPITIGNGFLKSEILTNSPRNTKEAWWKVLWEKIKDFFFSTGKAKADRCLHEMLFADRTPTRERLTEIFFELKELACASQRDRFQVYNPNENDDTIILRIMDQNEENELLRITQNTDAFTCEVMGNAYFLIKDRPDILKPHPQMTAMINRRYSEIVDYPLPSTLCLNPAGAPTLSVPLDNIEGYLYSEWRKGNLDEWKTQEKVTYLAAKIQSGIEKTTRILQHANISESTQQSAFLETMAMCGLKQLEIPPPHTHIPIEKMVKEVLLADKTFQAFLVTDPSTSQSMLAEIVEAISDQVFHAIFRIAPQAIQKMAEEQLTTLHVRSEQQSGCLCCFL”, the protein production result was “failed”.

With “MPKEKYEPPDPRRMYTIMSSEEAANGKKSHWAELEISGKVRSLSSSLWSLTHLTALHLSDNSLSCIPSDIAKLHNLVYLDLSHNQIQSLPAELGNMVSLRELHLNYNQLRVLPFELGKLFQLQTLSLKGNPLTQDILNLCLEPDGTRRLLNYLLDNLSVSTEQPPPRSWIMLQEPDRTRPTALFSVMCYNVLCDKYATRQLYGYCPSWALNWDYRKKAIIQEILSCNADIISLQEVETEQYYSFFLVELKERGYNGFFSPKSRARTMSEQERKHVDGCAIFFKTEKFTLVQKHTVEFNQLAMANSEGSEAMLNRVMTKDNIGVAVLLELRKELIEMSSGKPHLGTEKQLILVANAHMHWDPEYSDVKLVQTMMFLSEVKNIIDKASRSLKSSVLGECGTIPLVLCADLNSLPDSGVVEYLSTGGVETNHKDFKELRYNESLTNFSCNGKNGMTNGRITHGFKLKSAYENGLMPYTNYTFDFKVSFHSLIFISMFCNFLSLKHQCML”, the protein production result is recorded as “failed”.

For “MPKERVDVLAYKQGLFETREQAKRGVMAGLVVNVINGERYDKPGEKIDDGTELKLKGEKLRYVSRGGLKLEKALAVFNLSVEDMITIDIGASTGGFTDVMLQNGAKLVYAVDVGTNQLVWKLRQDDRVRSMEQYNFRYAEPVDFTEGLPSFASIDVSFISLNLILPALAKILVDGGQVVALVKPQFEAGREQIGKNGIVRESSIHEKVLETVTAFAVDYGFSVKGLDFSPIQGGHGNIEFLAHLEKTDSPQNDVPTSIKEVVAQAHKEFKKNEEERSFGVNPKDCPRK”, the protein production entry is recorded as “not failed”.

Turning to “MPKILWKSLHLCFPSNLTKCYSSPCIPPSSADPDGIIQPNRPSIVLLNNFNLLYHNDNHHHPHRVIDLPSSSTTTTPAATSSSSTSSYESDISPDVSAAFASRRFFFSSPGRSNAITDSPEPRSREFSDNYDDATITSTKKKKKKVYDNSVTTTTTRLISGGTAVTQHVDSPDPLTDFRRSMQEMIDAAIDAGELSRDPNDGYDFLDELLLTYLSLNPADTHKFVIRAFSDILVSLLSEERRIC”, the protein production result is “failed”.

As to “MPKIPITLITGFLGSGKTSFLSEYLNQTDHQGVALIINEIGQAALDQRILSVQYCGEKMLYLNAGCVCCNKRLDLVESLKATLNNYEWHGEILRRIIIETTGLANPAPILWTILSDTFLGVHFEIQSVVACVDALNAREHLTNNEAKEQIVFADSVLLTKTDLQNDSAALTKLKERIQALNPSAEIFDKRAIDYESLFSRKNRARNFMPRMPKDSHSQGFETLSINFEGTMEWSAFGIWLSLLLHQYGTQILRIKGIIDIGSGFLVSINGVMHVIYPPKHILKDQNGSNLVFIMRHLEREKILNSLKGFKDFLGIKGFETQLEHHHHHH”, the protein production result is listed as “not failed”.

For “MPKIWTERIFDDPEIYVLRIDDDRIRYFEAVWEIPEGISYNAYLVKLNGANVLIDGWKGNYAKEFIDALSKIVDPKEITHIIVNHTEPDHSGSLPATLKTIGHDVEIIASNFGKRLLEGFYGIKDVTVVKDGEEREIGGKKFKFVMTPWLHWPDTMVTYLDGILFSCDVGGGYLLPEILDDSNESVVERYLPHVTKYIVTVIGHYKNYILEGAEKLSSLKIKALLPGHGLIWKKDPQRLLNHYVSVAKGDPKKGKVTVIYDSMYGFVENVMKKAIDSLKEKGFTPVVYKFSDEERPAISEILKDIPDSEALIFGVSTYEAEIHPLMRFTLLEIIDKANYEKPVLVFGVHGWAPSAERTAGELLKETKFRILSFTEIKGSNMDERKIEEAISLLKKELE”, the protein production entry is “not failed”.
